How the values were obtained:
untagged LaminB1 = molecular target: T1, untagged LaminB1 (human, UniProt P20700 1-586); test: pull-down; amylose-MBP matrix alone or coupled with MBP-Jacob proteins, washed in 20 mM Tris pH 7.5, 1 mM DTT, 3 mM EDTA, 100 mM NaCl, 0.3% TritonX-100; incubated with 20 μg of untagged LaminB1 or untagged CRM1 overnight at 4 °C; Western blot; conditions: both partners purified
T1 construct: Lamin B1, human, subcloned from mTagRFP-hLaminB1 into the Intein-pMXB10 vector between NdeI and XhoI; Cloning through the XhoI site may leave a few vector residues at the C-terminus after the intein is cut off (surmise); also called recombinant LaminB1; LaminB1(PMXB10); source: E. coli SHuffle (C3026), purified (chitin resin, released with 50 mM DTT)
T1 sequence (looked up): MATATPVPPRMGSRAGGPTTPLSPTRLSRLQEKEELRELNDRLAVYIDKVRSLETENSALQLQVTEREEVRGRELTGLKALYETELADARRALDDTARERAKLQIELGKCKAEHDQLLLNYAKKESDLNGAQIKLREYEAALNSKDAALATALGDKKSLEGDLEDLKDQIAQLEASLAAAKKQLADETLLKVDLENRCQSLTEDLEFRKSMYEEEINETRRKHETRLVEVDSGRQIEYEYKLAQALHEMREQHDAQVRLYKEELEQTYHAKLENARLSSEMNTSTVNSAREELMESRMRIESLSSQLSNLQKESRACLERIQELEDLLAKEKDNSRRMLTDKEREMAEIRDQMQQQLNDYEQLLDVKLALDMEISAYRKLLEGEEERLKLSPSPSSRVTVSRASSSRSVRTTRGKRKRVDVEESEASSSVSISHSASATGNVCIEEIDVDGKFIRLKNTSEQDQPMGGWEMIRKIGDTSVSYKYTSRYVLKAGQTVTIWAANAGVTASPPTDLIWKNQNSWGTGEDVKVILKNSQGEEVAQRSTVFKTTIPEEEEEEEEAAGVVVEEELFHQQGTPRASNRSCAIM

untagged-CRM1 = molecular target: T2, untagged-CRM1 (human, UniProt O14980 1-1071); test: as above; conditions: both partners purified
T2 construct: CRM1 (Exportin 1), human, subcloned from 3xFLAG-hCRM1 into the Intein-pMXB10 vector between NdeI and XhoI; Cloning through the XhoI site may leave a few vector residues at the C-terminus after the intein is cut off (surmise); also called recombinant CRM1; CRM1 (PMXB10); source: E. coli ExpressLysY/Iq, purified (chitin resin, released with 50 mM DTT)
T2 sequence (O14980 whole entry): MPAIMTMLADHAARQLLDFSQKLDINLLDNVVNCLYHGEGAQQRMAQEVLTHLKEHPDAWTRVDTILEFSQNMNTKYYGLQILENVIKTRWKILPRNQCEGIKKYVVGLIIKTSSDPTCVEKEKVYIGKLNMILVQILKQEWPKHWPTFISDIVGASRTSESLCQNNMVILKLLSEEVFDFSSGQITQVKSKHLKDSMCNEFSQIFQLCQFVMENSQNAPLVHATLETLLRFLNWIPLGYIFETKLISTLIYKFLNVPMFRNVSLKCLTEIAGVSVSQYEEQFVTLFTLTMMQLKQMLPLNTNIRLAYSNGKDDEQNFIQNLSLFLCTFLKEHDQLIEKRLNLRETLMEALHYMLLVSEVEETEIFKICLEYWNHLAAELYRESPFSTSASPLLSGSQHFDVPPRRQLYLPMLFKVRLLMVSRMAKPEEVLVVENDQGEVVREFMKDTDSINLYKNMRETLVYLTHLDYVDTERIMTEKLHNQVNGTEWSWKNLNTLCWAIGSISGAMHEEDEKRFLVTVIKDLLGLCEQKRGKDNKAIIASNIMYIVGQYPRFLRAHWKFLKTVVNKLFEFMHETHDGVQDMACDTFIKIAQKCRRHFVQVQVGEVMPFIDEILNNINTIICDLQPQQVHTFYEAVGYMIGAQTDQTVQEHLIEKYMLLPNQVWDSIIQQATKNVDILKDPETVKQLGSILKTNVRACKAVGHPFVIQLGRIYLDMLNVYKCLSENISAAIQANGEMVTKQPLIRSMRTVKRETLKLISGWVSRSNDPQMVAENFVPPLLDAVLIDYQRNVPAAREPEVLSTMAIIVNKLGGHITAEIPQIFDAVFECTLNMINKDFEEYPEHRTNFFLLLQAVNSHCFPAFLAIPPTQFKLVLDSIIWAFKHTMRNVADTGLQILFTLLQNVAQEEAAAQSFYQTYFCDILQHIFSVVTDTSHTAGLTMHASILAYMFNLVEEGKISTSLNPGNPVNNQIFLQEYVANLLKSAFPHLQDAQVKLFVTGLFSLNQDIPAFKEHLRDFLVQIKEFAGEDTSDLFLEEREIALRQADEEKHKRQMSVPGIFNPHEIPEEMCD

binding result (untagged LaminB1): binds
binding result (untagged-CRM1): binds
B1: MBP-45-532-Jacob (domain or fragment, rat, UniProt Q9EPI6 45-532, looked up)
chain: DHLLADAYSGHEGSPEMQPAPHNKRRLSLVSNGRYEGSISDEAVSGKTATEGPQPRVYTISREPALLPGSEAEAIELAVVKGRRQRERHPHHHSQPLRASPGSSREDISRPCQSWAGSRQGSKECPGCAKLVPGPSPRAFGLEQPPLPEASGRHKKLERMYSVDGVSDDVPIRTWFPKENPFSFQTATTTMQAISVFRGYAERKRRKRENDSASVIQRNFRKHLRMVGSRRVKAQTFAERRERSFSRSWSDPTPMKADTSHDSRDSSDLQSSHCTLDEACEDLDWDTEKGLEATACDTEGFLPPKVMLISSKVPKAEYIPTIIRRDDPSIIPILYDHEHATFEDILEEIEKKLNIYHKGAKIWKMLIFCQGGPGHLYLLKNKVATFAKVEKEEDMIHFWKRLSRLMSKVNPEPNVIHIMGCYILGNPNGEKLFQNLRTLMTPYKVTFESPLELSAQGKQMIETYFDFRLYRLWKSRQHSKLLDFDDVL
notes: Jacob (Nsmf), residues 45-532, truncated for protein stability; also called amylose-MBP-45-532-Jacob; Jacob fused to MBP; source: E. coli SHuffle (C3026), pMAL vector, coupled to amylose resin

Source: article PMC7802242, “The nuclear lamina is a hub for the nuclear function of Jacob” (Molecular Brain, 2021)
